Experimental data taken from the nanobody polyreactivity screen of Harvey et al. (2022).

assay: yeast display, Sf9 membrane polyspecificity reagent, FACS + sequencing; frameworks hold sequencing errors
How it was run: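 Galactose-induced (36–48 hours) yeast carrying a synthetic nanobody display library were exposed to 10% biotinylated, detergent-solubilized Sf9 membrane reagent at 4 °C for 1 hour. FACS followed streptavidin microbead enrichment, using low and high (top ~1%) gates for expression (anti-HA) and reagent binding (streptavidin). Colony PCR, MiSeq 2 × 250 sequencing and CDR-length filtering followed. Labels for polyreactivity reflect the gate of origin.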

Row | Sequence | polyreactivity (PSR sort gate)
1 | QVQLVESGGGLVQAGGSLRLSCAAYGSTYGTNALGWYRQAPGKERELVAAITSRVGRTYYADSVKGRFTISRDNAKNTVYLQMNSLKPEDTAVYYCAASRLVRYQSRYGSWGQGTQVTVSS | high polyreactivity
2 | QVQLVESGGGLVQAGGSLRLSCASSGSTFHDYAMGWYRQAPGKERELVAAISNSGGSTYYADSVKGRFTISRDNAKNTVYLQMNSLKPEDTAVYYCAADGRWYWDYEYWGQGTQVTVSS | low polyreactivity
3 | QDKLVESGGGLVKAGGSLRLSCAASGSIFATYAMVWYRQAPGKERELVAAISKSTDSTYYADSVKGRFTISRDNAKNNVYLQMNSQKPEDTAVYYCAAVQRYKGLQDDSWGQGTQVTVSS | high polyreactivity
4 | QVQLEESGGGLVQAGGSLRLSCAASGIIFTVYAMGWYRQATGTERELVAAITSSGGRTYYADSVKGRFTISRDNAKNTVYLQMNSLKPEDTAVYYCAARLPGYVRKYDYWGQGTQVTVSS | high polyreactivity
5 | QVQLVESGGGLVQAGGSLRLSCAASGRTFNVNVMGWYRQAPGKERELVAAIRYNGGSTYADSVKGRFTISRDNAKNTVYLQMNSLKPEDTAVYYCNADTFFPFEHGMDYWGQGTQVTVSS | low polyreactivity
6 | QVQLQESGGGLVQAGGSLRLSCAASGSIFEELDMGWYRQAPGKEREFVAAIGTGSTTYYADSVKGRFTISRDNAKNTVYLQMNSLKPEDTAVYYCAVTYSVYLPFRYWGQGTQVTVSS | high polyreactivity
7 | QVQLVESGGGLVQAGGSLRLSCAASGSTLGPYAMGWYRQAPGKERELVATINSSGSTNYADSVKGRFTISRDNAKNPVYLQMNSLKPEDTAVYYCATLHYYYWYDYWGQGTQVTVSS | low polyreactivity
8 | QVQLVESGGGLVQAGGSLRLSCAASGSILSENAMGWYRQAPGKERELVATISGSGSSTYYADSVKGRFTISRDNAKNTVYLQMNSLKPEDTAVYYCAAKYYLYWWPYDYWGQGTQVTVSS | low polyreactivity
9 | HVQLVESGGGLVQAAGSLRLSCAASGSTFYRYAMGWYRQAPVKERELVAAITRGGGRTYYADSVKGRFTISRDNAKNTVYLQMNSLKPEDTAVFYCNAASPYYDSWGQGTQVTVSS | high polyreactivity
10 | QVQLVESGGGLVQAGGSLRLSCAASGSTFYRYAMGWYRQAPGKERELVAAISQSGGRTYYADSVKGRFTISRDYAKNTVYLQMNSLKPEDTAVYYCAASWYYSLQRYGYWGQGTQVTVST | high polyreactivity
11 | QVQLVESGGGLVQAGGSLRLSCAASGFTFQYNAMGWYRQAPGKERELVAAITWTGTSTYAYSVKGRFTISRDNAKNTVYLQLNSVKPDDTGVYYCAARYYAPRWFRYDYWGQGTQVTVSS | low polyreactivity
12 | QVHLVESGGGLVQAGGSLRLSCAASGRTFRKYAMGWYRQAPGKERELVAAISSSGGRTYYADSVKGRFTISRDNAKNTVYLQMNSLKPEDTAVYYCAAKQGNRNSYKYDYWGQGTQVTVSS | high polyreactivity
13 | QVQLVESGGGLVQAGGSLRLSCAASGFIFDSYAMGWYRQAPGKERELVAAITYSGSSTYYADSVKGRFTISRDNAKNTVYLQMNSLKPEDTAVYYCAAVWRYSHLYGYWGQGTQVTVSS | high polyreactivity
14 | QDQLGESGGGLVQAGGSLRLSCAASGSTFYAYAMGWYRQAPGKERELVATISWSGGSTYADCVKGRFTISRDNAKNTVYLQMNSLKPEDTPVYYCNAAGAFYPTQVHPGYTLWSYDYWGQGTQVTVSS | low polyreactivity
15 | KVQVVESGGGVVQAGGTLRLSCAASGSIAGNAMGWYRQAPGKERELVAAITFRGSGTYYADSVKGRFTISRDNAKNTVYLQINSLKPEDTAVYYCNAYRRGLSGYGYWGQGTQVTVSS | high polyreactivity
16 | QVQLVESGGGLVQAGGSLRLSCAASGFIFKHYAMGWYRQAPGKERELVAAITISASRTYYADSVKGRFTISRDNAKNTVYLQMNSLKPEDTAVYYCARRLLRGSDWGQGTQVTVSS | high polyreactivity
17 | QVQLVESGGGLVQAGGSLRLSCAASGSSFGYYAMGWYRPAPGKERELVAAITRRGVNTYYADSVKGRFTISRDNAKNTVYLQMNSLKPEDTAVYYCAATWWQYAQGLHRYDYWGQGTQVTVSS | high polyreactivity
18 | QVQLVESGVGLVQAGGSLRLSCAGSGFNFIANAMGWYRQAPGKERELVAAISDGGSTYYADSVKGRFTISRDNAKNTVYLQMNSLKPEDTAVYYCAKDVTWAGHYDYWGQGTQVTVSS | low polyreactivity
19 | QVQLVESGGGLVQAGGSLRLSCAASGRTFGFNVMGWYRQAPGKERELVAAISWSGGSTYYADSVKGRFTISRENAKNTVYLQMNSLKPEDTAVYSCNKRYVHRYGYWGQGTQVTVTS | low polyreactivity
20 | QVQLVESGGALVQAGGSLRLSCAACGRTFWYNAMGWYRQAPGKERELVAAITRGGGRTYYADSVKGRFTISRDNAKNTVYLQMNSLKPEDTAVYYCAADSYYDMNYWGQGTQVTVSS | low polyreactivity
21 | QVQLVESGGGLVQAGGSLRLSCASSGRNFYSYVMGWYRQAPGKERELVAAITRSGGTTYYADSVKGRITISRDNAKNTVYLEMYSLKPEDTAVYYCAAYVGGIRYYSWGQGTQVIVSS | high polyreactivity

Row | Sequence | polyreactivity (PSR sort gate)
22 | QVQLVESGGGLFQAGGSLRLSCAATGSIFDYYAMGWYRQAPGKERELDGTITSGVSTYYADSVKGRFTISRDNAKNTVYLQMISLKPEDTAVYYCARDYAKSQDLYKYDYWGQGTQVTGSS | low polyreactivity
23 | QDQHVESGGGLVQAGGSLRLSCAASGLTSLGNAMGWYRQAPGKERELVAAITRTGTSTYYADSVKGRFTISRDNAKNTVYLQMNSLKPEDTAVYYCAADWWYGYSNYDYWGQGTQVTVSS | low polyreactivity
24 | QVQLVESGGGLVQAGGSLRLSCAASGSTFSEYAMGCYRQAPGKERELVAAITWDGGSTYYPDSVKGRFTISRDNAKNTVYLQMNSLKPEDTAVYYCATDGWSYSYGYWGQGTQVTVSS | low polyreactivity
25 | QVQLVESGGGLVQAGGSLRLSCAASGSTFSPYAMGWYRQAPGKERELVAAISSSGGSTYYADSVKGRFTISRDNAKNTVYLQMNSLKPEDTAVYYCRSFTSAQTLDYWGQGTQVTVSS | high polyreactivity
26 | QVQLVESGGGLVQAGGSLRLSCAASGSTLRGYTMGWYRQAPGKERELVAAISWSGASTYYADSVKGRFTISRDNAKNTVYLQMNSLKPEDTAVYYCYRAGRYVREYTVDYWGQGTQVTVSS | high polyreactivity
27 | QVQLVESGGGLVQAGASLRLSCAASGRTFSNYEMGSYRQAPGKERELVAAISGTGGTTYYADSVKGRFTISRVNEKNTVYLQMNSLKPEDTAVYYCAARSHTGYFPPSYYSGQGTQVTVSS | high polyreactivity
28 | QVQLEESGGGLVQAGGRLRLSCAASGRIFAVNAMGWYRQAPGKERELVASITSRGGSTYYADSVYGRFTISRDNAKNTVYLQMPSLKPEDTAVDYCASPYYSLTTNDYDYSGQGTQVTVSS | high polyreactivity
29 | QVQLVESGGGLVQAGGSLRLSCAASGITFYLYALGWYRQAPGKERELVAAISSSGGRTYYADSVKGRFTISRDNAKNTVYLQMNSLKPEDTAVYYCAARRYGVPPTYDYWGQGTQVTVSS | high polyreactivity
30 | QVQLVESGGGLVQAGGSLRLSCAASGSIFYYNAMGWYRQAPGKERELVAAITSSGGSTYADSVKGRFSISRDNAKNTVYLQMKSLKPEDTAVYYCNADGGYSYESTDHYGYEYWGQGTQVTVSS | low polyreactivity
31 | QVQLQESGGGLVQAGGSLRLSCAPSGTITVLYKMGWFRQAPGKEGEFVASINYGTSTYYADSVKGRFTVSRDRAKNTVYLQMNSLKPEDTAVYYCAAAYRWQDVYRYWGQGTQVTVSS | low polyreactivity
32 | QVQLVESGGGLVQAGGSLRLSCAASGRIFTPYAMGWYRQAPGKEREFVATISFRGDSTYYADSVKGRFTISRDNAKNSVYLQMNSLKPEDTAVYYCAARQYGGYGYWGQGTQVTVSS | high polyreactivity
33 | QVQLVESGGGLVQAGGSLRLSCAASGSTFAKYAMGWYRQAPGKERELVAAIRSGGSTNYADSVKGRFTISRDNAKITVYLQMYSLKPEDTAVYYCAAKRDVSRPVYFRNDYWGQGTQVTVSS | low polyreactivity
34 | QVQLVESGGGLVQAGGSLRLSCAASGRIFAYNAMGWYRQAPGKEREVVAAIDSGGDTNYADSVKGRFTISRDNAKNTVYLQMNSLKPEDTAVYYCNVTYSGQATFAYTDSARYDYWGQGTQVTVSS | low polyreactivity
35 | QVQLVDSGGGLVQAGGSLRLSCAAYGSTDKPNAMGWYRQAPGKQRELVAANSGSGGSTYYADTVKGRFTISRDNAKNTVYLQMNSLKPEDTAVYYCAAKRTGNGYPRSGYSRYEYWGQGTQVTVSS | high polyreactivity
36 | QDQLVESGGGLVQAGGSLRLSCAASGYTLYTYAMGWNRQAPRKERELVAAISTGGGRTYNADSVKGRFTISRDNAKNTVYLQMICLKPEDTAVYYCAAPYRSLKTGRYDYWGQGTQVSVSS | high polyreactivity
37 | QVQLVESGGGLVQAGGSLRLSCAASGRTFRRYAMGWYRQAPGKERELVAAIRSDGSTYYADSVKGRFTISRDNAKNTVYLQMNSLKPEDTAVYYCAKVLDQRRRYDYWGQGTQVTVSS | low polyreactivity
38 | QVQLVESGGGLVQAGCSLRLSCAASGSIFYQYSMGWYRQAPGKERELVAAITWDGSRTYYADSVKGRFTISRDNAKNSVYLQMNSLKPEDTSVYYSNAVTRYSLFDYWGLGTQVTVSS | high polyreactivity
39 | QVQHVESGGGLVQAGGSLRLSCAASGFTFPGYAMGWYRQAPGKERELVAAISSSGGRTNYADSVKGRFTISRDNAKNTVYLQMNSLKPEDTAVYYCKAVRTVRSYLQLTRHLVYWGQGTQVTVSS | high polyreactivity
40 | QVQLVESGGGLVQAGGSLSLSCAASGRIFNRNAMGWYRQAPGKEREFVAAISYSSGSTYYADSVKGRFTISRDNAKNTVYLQMNSLKPEDTAVYYCAAKVYNSRRNGYFGWTWGGYDYWGQGTQVTVSS | high polyreactivity
41 | QVQLVESGGGLVQAGGSLRLSCAASGRTFYFYTLGWYRPAPGKERELVAAITSGGSTNYADSVKGRFTISRDNAKNTVYLQMNSLIPEDTAVYYCAAKYYRVYGYGLRMYYWGQGTQVTVSS | high polyreactivity
